# Laboratory results: article PMC12416549 (2024)
# T1: TNFR1 (Homo sapiens, UniProt P19438)
# T1 chain: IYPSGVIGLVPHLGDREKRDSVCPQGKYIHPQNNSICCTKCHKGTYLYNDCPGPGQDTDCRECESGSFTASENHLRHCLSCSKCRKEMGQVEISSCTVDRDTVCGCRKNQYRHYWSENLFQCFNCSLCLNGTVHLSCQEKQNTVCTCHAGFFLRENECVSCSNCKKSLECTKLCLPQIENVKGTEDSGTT
# Molecular target: T1, TNFR1
# Assay: yeast display SC50
row,apparent Kd (screen),Binder
1,1.4 nM,L93A (designed binder) MTLQELLREEALRRAEAEAFRYALELLAEKFPEQKEYLLDLAEEIESQIRSLSGVDVEDVRKFLDKEWAWVKELLAEHPAELAEVEAARAARAAELRAEVEAKVAA
2,0.446 nM,A28G (designed binder) MTLQELLREEALRRAEAEAFRYALELLGEKFPEQKEYLLDLAEEIESQIRSLSGVDVEDVRKFLDKEWAWVKELLAEHPAELAEVEAARAARLAELRAEVEAKVAA
3,0.446 nM,V85T (designed binder) MTLQELLREEALRRAEAEAFRYALELLAEKFPEQKEYLLDLAEEIESQIRSLSGVDVEDVRKFLDKEWAWVKELLAEHPAELAETEAARAARLAELRAEVEAKVAA
4,0.869 nM,L75T (designed binder) MTLQELLREEALRRAEAEAFRYALELLAEKFPEQKEYLLDLAEEIESQIRSLSGVDVEDVRKFLDKEWAWVKELTAEHPAELAEVEAARAARLAELRAEVEAKVAA
5,4.39 nM,W68V (designed binder) MTLQELLREEALRRAEAEAFRYALELLAEKFPEQKEYLLDLAEEIESQIRSLSGVDVEDVRKFLDKEVAWVKELLAEHPAELAEVEAARAARLAELRAEVEAKVAA
6,0.956 nM,V104T (designed binder) MTLQELLREEALRRAEAEAFRYALELLAEKFPEQKEYLLDLAEEIESQIRSLSGVDVEDVRKFLDKEWAWVKELLAEHPAELAEVEAARAARLAELRAEVEAKTAA
7,0.446 nM,E86D (designed binder) MTLQELLREEALRRAEAEAFRYALELLAEKFPEQKEYLLDLAEEIESQIRSLSGVDVEDVRKFLDKEWAWVKELLAEHPAELAEVDAARAARLAELRAEVEAKVAA
8,0.956 nM,E86A (designed binder) MTLQELLREEALRRAEAEAFRYALELLAEKFPEQKEYLLDLAEEIESQIRSLSGVDVEDVRKFLDKEWAWVKELLAEHPAELAEVAAARAARLAELRAEVEAKVAA
9,0.79 nM,A94Q (designed binder) MTLQELLREEALRRAEAEAFRYALELLAEKFPEQKEYLLDLAEEIESQIRSLSGVDVEDVRKFLDKEWAWVKELLAEHPAELAEVEAARAARLQELRAEVEAKVAA
10,1.69 nM,E9G (designed binder) MTLQELLRGEALRRAEAEAFRYALELLAEKFPEQKEYLLDLAEEIESQIRSLSGVDVEDVRKFLDKEWAWVKELLAEHPAELAEVEAARAARLAELRAEVEAKVAA
11,2.25 nM,E36T (designed binder) MTLQELLREEALRRAEAEAFRYALELLAEKFPEQKTYLLDLAEEIESQIRSLSGVDVEDVRKFLDKEWAWVKELLAEHPAELAEVEAARAARLAELRAEVEAKVAA
12,12.5 nM,V60P (designed binder) MTLQELLREEALRRAEAEAFRYALELLAEKFPEQKEYLLDLAEEIESQIRSLSGVDVEDPRKFLDKEWAWVKELLAEHPAELAEVEAARAARLAELRAEVEAKVAA
13,24.4 nM,L3N (designed binder) MTNQELLREEALRRAEAEAFRYALELLAEKFPEQKEYLLDLAEEIESQIRSLSGVDVEDVRKFLDKEWAWVKELLAEHPAELAEVEAARAARLAELRAEVEAKVAA

# Further lines, the binder ahead of its results:
row,Binder,apparent Kd (screen)
1,Y37W (designed binder) MTLQELLREEALRRAEAEAFRYALELLAEKFPEQKEWLLDLAEEIESQIRSLSGVDVEDVRKFLDKEWAWVKELLAEHPAELAEVEAARAARLAELRAEVEAKVAA,3.3 nM
2,E33F (designed binder) MTLQELLREEALRRAEAEAFRYALELLAEKFPFQKEYLLDLAEEIESQIRSLSGVDVEDVRKFLDKEWAWVKELLAEHPAELAEVEAARAARLAELRAEVEAKVAA,0.956 nM
3,D56T (designed binder) MTLQELLREEALRRAEAEAFRYALELLAEKFPEQKEYLLDLAEEIESQIRSLSGVTVEDVRKFLDKEWAWVKELLAEHPAELAEVEAARAARLAELRAEVEAKVAA,2.48 nM
4,A98R (designed binder) MTLQELLREEALRRAEAEAFRYALELLAEKFPEQKEYLLDLAEEIESQIRSLSGVDVEDVRKFLDKEWAWVKELLAEHPAELAEVEAARAARLAELRREVEAKVAA,0.653 nM
5,E58W (designed binder) MTLQELLREEALRRAEAEAFRYALELLAEKFPEQKEYLLDLAEEIESQIRSLSGVDVWDVRKFLDKEWAWVKELLAEHPAELAEVEAARAARLAELRAEVEAKVAA,0.653 nM
6,E101F (designed binder) MTLQELLREEALRRAEAEAFRYALELLAEKFPEQKEYLLDLAEEIESQIRSLSGVDVEDVRKFLDKEWAWVKELLAEHPAELAEVEAARAARLAELRAEVFAKVAA,0.593 nM
7,E36R (designed binder) MTLQELLREEALRRAEAEAFRYALELLAEKFPEQKRYLLDLAEEIESQIRSLSGVDVEDVRKFLDKEWAWVKELLAEHPAELAEVEAARAARLAELRAEVEAKVAA,0.653 nM
8,E86W (designed binder) MTLQELLREEALRRAEAEAFRYALELLAEKFPEQKEYLLDLAEEIESQIRSLSGVDVEDVRKFLDKEWAWVKELLAEHPAELAEVWAARAARLAELRAEVEAKVAA,2.73 nM
9,Q34W (designed binder) MTLQELLREEALRRAEAEAFRYALELLAEKFPEWKEYLLDLAEEIESQIRSLSGVDVEDVRKFLDKEWAWVKELLAEHPAELAEVEAARAARLAELRAEVEAKVAA,1.69 nM
10,A19E (designed binder) MTLQELLREEALRRAEAEEFRYALELLAEKFPEQKEYLLDLAEEIESQIRSLSGVDVEDVRKFLDKEWAWVKELLAEHPAELAEVEAARAARLAELRAEVEAKVAA,0.956 nM
11,Q4M (designed binder) MTLMELLREEALRRAEAEAFRYALELLAEKFPEQKEYLLDLAEEIESQIRSLSGVDVEDVRKFLDKEWAWVKELLAEHPAELAEVEAARAARLAELRAEVEAKVAA,0.49 nM
12,K30R (designed binder) MTLQELLREEALRRAEAEAFRYALELLAERFPEQKEYLLDLAEEIESQIRSLSGVDVEDVRKFLDKEWAWVKELLAEHPAELAEVEAARAARLAELRAEVEAKVAA,0.593 nM
13,R21D (designed binder) MTLQELLREEALRRAEAEAFDYALELLAEKFPEQKEYLLDLAEEIESQIRSLSGVDVEDVRKFLDKEWAWVKELLAEHPAELAEVEAARAARLAELRAEVEAKVAA,0.539 nM
14,Q4K (designed binder) MTLKELLREEALRRAEAEAFRYALELLAEKFPEQKEYLLDLAEEIESQIRSLSGVDVEDVRKFLDKEWAWVKELLAEHPAELAEVEAARAARLAELRAEVEAKVAA,0.49 nM
15,E99T (designed binder) MTLQELLREEALRRAEAEAFRYALELLAEKFPEQKEYLLDLAEEIESQIRSLSGVDVEDVRKFLDKEWAWVKELLAEHPAELAEVEAARAARLAELRATVEAKVAA,0.79 nM
16,L26R (designed binder) MTLQELLREEALRRAEAEAFRYALERLAEKFPEQKEYLLDLAEEIESQIRSLSGVDVEDVRKFLDKEWAWVKELLAEHPAELAEVEAARAARLAELRAEVEAKVAA,0.446 nM
17,A91D (designed binder) MTLQELLREEALRRAEAEAFRYALELLAEKFPEQKEYLLDLAEEIESQIRSLSGVDVEDVRKFLDKEWAWVKELLAEHPAELAEVEAARADRLAELRAEVEAKVAA,0.49 nM
18,L3A (designed binder) MTAQELLREEALRRAEAEAFRYALELLAEKFPEQKEYLLDLAEEIESQIRSLSGVDVEDVRKFLDKEWAWVKELLAEHPAELAEVEAARAARLAELRAEVEAKVAA,2.73 nM
19,K30S (designed binder) MTLQELLREEALRRAEAEAFRYALELLAESFPEQKEYLLDLAEEIESQIRSLSGVDVEDVRKFLDKEWAWVKELLAEHPAELAEVEAARAARLAELRAEVEAKVAA,0.718 nM
20,L75E (designed binder) MTLQELLREEALRRAEAEAFRYALELLAEKFPEQKEYLLDLAEEIESQIRSLSGVDVEDVRKFLDKEWAWVKELEAEHPAELAEVEAARAARLAELRAEVEAKVAA,0.653 nM
21,A105S (designed binder) MTLQELLREEALRRAEAEAFRYALELLAEKFPEQKEYLLDLAEEIESQIRSLSGVDVEDVRKFLDKEWAWVKELLAEHPAELAEVEAARAARLAELRAEVEAKVSA,0.79 nM
22,K66E (designed binder) MTLQELLREEALRRAEAEAFRYALELLAEKFPEQKEYLLDLAEEIESQIRSLSGVDVEDVRKFLDEEWAWVKELLAEHPAELAEVEAARAARLAELRAEVEAKVAA,0.869 nM
